Target: GbnD4 DHD domain (Burkholderia gladioli BCC0238)
Assay: NMR titration

GbnD5 apo-DH-ACP di-domain (domain or fragment)
average apparent KD of the Val19-Glu30 and Ala49-Arg60 regions: 7 to 15 µM

From article PMC5846730
